# Results published in patent US20260146074A1 (CITY OF HOPE, published 2026).
# Molecular target: TAG72 on the surface of human tumor cells (LS174T, OVCAR3, OV90, OVCAR8-sTn, patient ascites OAS4 and OAS7) (human)
# Experiment: cell-based or functional assay
binder,measurement,value
"TAG72-BBζ CAR (hTag72scFv-IgG4(HL-CH3)-CD4tm-41BB-Zeta), expressed on human T cells (other) QVQLVQSGAEVVKPGASVKISCKASGYTFTDHAIHWVKQNPGQRLEWIGYFSPGNDDFKYNERFKGKATLTADTSASTAYVELSSLRSEDTAVYFCTRSLNMAYWGQGTLVTVSSGSTSGGGSGGGSGGGGSSDIVMSQSPDSLAVSLGERVTLNCKSSQSLLYSGNQKNYLAWYQQKPGQSPKLLIYWASARESGVPDRFSGSGSGTDFTLTISSVQAEDVAVYYCQQYYSYPLTFGAGTKLELKESKYGPPCPPCPGGGSSGGGSGGQPREPQVYTLPPSQEEMTKNQVSLTCLVKGFYPSDIAVEWESNGQPENNYKTTPPVLDSDGSFFLYSRLTVDKSRWQEGNVFSCSVMHEALHNHYTQKSLSLSLGKMALIVLGGVAGLLLFIGLGIFFKRGRKKLLYIFKQPFMRPVQTTQEEDGCSCRFPEEEEGGCELGGGRVKFSRSADAPAYQQGQNQLYNELNLGRREEYDVLDKRRGRDPEMGGKPRRKNPQEGLYNELQKDKMAEAYSEIGMKGERRRGKGHDGLYQGLSTATKDTYDALHMQALPPR","tumor killing relative to Mock, LS174T cells, 24 hours",59%
same,"tumor killing relative to Mock, LS174T cells, 72 hours",77%
same,"tumor killing relative to Mock, OV90 cells, 24 hours",67%
same,"tumor killing relative to Mock, OV90 cells, 72 hours",97%
same,"tumor killing relative to Mock, OVCAR3 cells, 24 hours",79%
same,"tumor killing relative to Mock, OVCAR3 cells, 72 hours",90%
